Reference: publication PMC5557676, “Structural Characterization of Acidic M17 Leucine Aminopeptidases from the TriTryps and Evaluation of Their Role in Nutrient Starvation in Trypanosoma brucei” (mSphere, 2017)
Values joined by “and” are separate entries in the source; they are usually repeats but may differ in a detail not shown here. Identical values can stand only once.

Assays:
[1] = target: Leishmania major acidic M17 leucine aminopeptidase (LmLAP-A) (Leishmania major (Friedlin)); test: crystal structure; crystals grown at 20°C by sitting- and hanging-drop vapor diffusion; apo, holo (Mn2+) and inhibitor-bound forms; homohexamer in the crystal
[2] = target: Leishmania major acidic M17 leucine aminopeptidase (LmLAP-A) (Leishmania major (Friedlin)); test: SEC-MALS; SEC-MALLS on Superdex 200 10/300; 10 mM Tris pH 8.0, 200 mM NaCl, 1 mM DTT; 0.1, 0.5, 1.0 and 3.0 mg/ml (TbLAP-A also 5 mg/ml), incubated at least 3 h at room temperature
[3] = target: T1, TbLAP-A (Trypanosoma brucei, UniProt Q385B0); test: X-ray crystal structure; type: binding; settings: Mn2+ in both metal sites, active site
T1 construct: gene Tb11.02.4440; full length, E. coli BL21(DE3); N-terminal His6 tag, HRV 3C-cleaved or with a noncleavable His tag; homohexamer; N-terminal domain aa 2-197, C-terminal domain aa 215-521
T1 sequence (Q385B0 1-521): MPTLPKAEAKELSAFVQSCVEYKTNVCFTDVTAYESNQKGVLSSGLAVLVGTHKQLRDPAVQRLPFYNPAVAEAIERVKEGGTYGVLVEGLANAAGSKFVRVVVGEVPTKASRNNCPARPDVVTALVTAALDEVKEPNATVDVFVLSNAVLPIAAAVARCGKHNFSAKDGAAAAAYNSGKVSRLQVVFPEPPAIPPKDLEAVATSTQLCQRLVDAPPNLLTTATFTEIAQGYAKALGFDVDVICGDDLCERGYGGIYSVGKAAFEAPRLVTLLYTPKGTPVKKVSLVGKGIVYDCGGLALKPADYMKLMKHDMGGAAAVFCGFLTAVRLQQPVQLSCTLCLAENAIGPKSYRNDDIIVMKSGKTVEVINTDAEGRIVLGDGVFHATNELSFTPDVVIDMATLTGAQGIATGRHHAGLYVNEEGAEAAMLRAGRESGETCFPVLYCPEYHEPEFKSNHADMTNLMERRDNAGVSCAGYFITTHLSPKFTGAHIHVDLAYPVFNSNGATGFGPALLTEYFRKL

[4] = target: Trypanosoma brucei acidic M17 leucine aminopeptidase (TbLAP-A) (Trypanosoma brucei (Lister427)); test: crystal structure; crystals grown at 20°C by sitting- and hanging-drop vapor diffusion; apo, holo (Mn2+) and inhibitor-bound forms; homohexamer in the crystal
[5] = target: Trypanosoma brucei acidic M17 leucine aminopeptidase (TbLAP-A) (Trypanosoma brucei (Lister427)); test: SEC-MALS; SEC-MALLS on Superdex 200 10/300; 10 mM Tris pH 8.0, 200 mM NaCl, 1 mM DTT; 0.1, 0.5, 1.0 and 3.0 mg/ml (TbLAP-A also 5 mg/ml), incubated at least 3 h at room temperature
[6] = target: Trypanosoma brucei acidic M17 leucine aminopeptidase (TbLAP-A) (Trypanosoma brucei (Lister427)); test: as above; remark: listed apart in the source
[7] = target: T1, TbLAP-A; test: native gel zymography, AMC fluorescence; type: biochemical; settings: 7.5 µM substrate, 50 mM Tris pH 8.0, 100 mM KCl, 1 mM MnCl2, 37 °C, 10 min
[8] = target: the molecule itself; test: crystal structure; crystals grown at 20°C by sitting- and hanging-drop vapor diffusion; apo, holo (Mn2+) and inhibitor-bound forms; homohexamer in the crystal
[9] = target: the molecule itself; test: SEC-MALS; SEC-MALLS on Superdex 200 10/300; 10 mM Tris pH 8.0, 200 mM NaCl, 1 mM DTT; 0.1, 0.5, 1.0 and 3.0 mg/ml (TbLAP-A also 5 mg/ml), incubated at least 3 h at room temperature

Molecule: Leishmania major acidic M17 leucine aminopeptidase (LmLAP-A) (enzyme)
- stoichiometry N [1]: 6
- stoichiometry N [2]: 6 and 3

Molecule: CC(C)C[C@H](NC(=O)[C@@H](O)[C@H](N)Cc1ccccc1)C(=O)O [bestatin]
- X-ray crystal structure ([3]; bicarbonate bound, 12 chains): TbLAP-A was cocrystallized with the inhibitor bestatin.

Molecule: Trypanosoma brucei acidic M17 leucine aminopeptidase (TbLAP-A) (enzyme)
- stoichiometry N [4]: 6
- stoichiometry N [5]: 3
- stoichiometry N [6]: 6

Molecule: CCCCC[C@H](CC(=O)NO)C(=O)N[C@H](C(=O)N1CCC[C@H]1CO)C(C)C [actinonin]
- X-ray crystal structure ([3]; less than full occupancy, six chains): The TbLAP-A--actinonin complex had six molecules in the asymmetric unit

Molecule: Cc1cc(=O)oc2cc(NC(=O)[C@@H](N)CC(C)C)ccc12 [Leu-AMC]
- native gel zymography, AMC fluorescence [7]: All three LAP-As were active against Leu-AMC

B1: Trypanosoma cruzi acidic M17 leucine aminopeptidase (TcLAP-A) (enzyme)
chain: MNRPPATDSGASEFVRSCVNFKTNVEFTDVDAYKKTHTAGLASTFVVILGTHAQLREDALKELPFYCPAVAEAIQRVKKGETYAVLAEGVKNEANERFVRVLVGEVPSEASRTNCSARPDVVVSLLSAALEEIKGPETKVDVFVCSTAALAIAVAAARSAKRNFTAKEGLAARGYCDNCVRLTVVFPTAPNPSPSELVVVATSTQLCQRLVDAPTNLLNTATFAEVAQSYAKELGCAVDVICGEELRERGYGGIYSVGKCAAEAPRLVTLSYKPKDETRKKVALVGKGIVYDSGGLSLKPTNFMTGMKRDMGGAAAVFCGFLTAVRLQMPIELSCTLCLAENAIGPDAYRNDDILTLKSGKTVEVNNTDAEGRLVLGDGVFHATHEISFKPDVLVDMATLTGAQGIATGHRHAGIFVNDEEEELSFLKAGRVSGETCFPVLYCPEYHVTEFRSPVADMRNSVKQVNNASVSCAGHFVANHLSPDFKGKHIHVDMAFPAFENDKATGFGPALLMEYLRNLR
- stoichiometry N [8]: 6
- stoichiometry N [9]: 3
